Measured values as given in paper PMC4352895, “Jarid2 Methylation via the PRC2 Complex Regulates H3K27me3 Deposition during Cell Differentiation” (Molecular Cell, 2015).

Legend:
PRC2 = PRC2 HKMT activity with Jarid2 fragments (aa 109–450), recombinant or native chromatin; assay type: biochemical; details: native chromatin; equimolar amounts of Jarid2 fragments aa 109–450; n = 3
Description: Figure 5 Jarid2 Methylation Regulates PRC2 Enzymatic Activity Depending on Chromatin Environment (A) HKMT assay performed with PRC2-Ezh2 on recombinant oligonucleosomes in the presence of peptides mimicking either Jarid2-K116me2 and me3 or H3K27me3. (B) HKMT assay as in (A) performed with PRC2-Ezh2 reconstituted with either Eed WT or F97A. (C) Table indicating the sequences of the peptides and the relative dissociation constant Kd (μM) for ΔEed binding measured by ITC. (D) Ribbons representation of ΔEed-Jarid2-K116me3 and ΔEed-H3K27me3 complexes. Eed is in gray; Jarid2 peptide is in yellow while H3 peptide is in purple, both in stick representation. Eed aromatic amino acids are in stick and cyan color. Top: top views. Bottom: zoom-in of side views. (E) HKMT assay as in (A) in presence of peptides Jarid2-K116me3 WT or F117A. (F) Left: representation of the chimeric proteins used in the HKMT assay. The red cross indicates the point mutations introduced in the protein to perform native chemical ligation. […] Right: quantification of PRC2-HKMT activity in the presence of the three Jarid2 fragments (mean ± SD, n = 3). […]
The N-terminal region of Jarid2 comprises distinct domains for both PRC2 and chromatin interactions ([Son et al., 2013]). […] We then monitored PRC2 enzymatic activity on recombinant or native nucleosomes either alone or in the presence of equimolar amounts of Jarid2 fragments (Figure 5F). […]

PRC2-Ezh2 = assay: HKMT assay, PRC2-Ezh2 with Jarid2 fragments, titration of H3K27me3 octamers in recombinant chromatin; assay type: biochemical; details: recombinant chromatin with increasing amount of H3K27me3 octamers
Description: Figure 5 Jarid2 Methylation Regulates PRC2 Enzymatic Activity Depending on Chromatin Environment (A) HKMT assay performed with PRC2-Ezh2 on recombinant oligonucleosomes in the presence of peptides mimicking either Jarid2-K116me2 and me3 or H3K27me3. (B) HKMT assay as in (A) performed with PRC2-Ezh2 reconstituted with either Eed WT or F97A. (C) Table indicating the sequences of the peptides and the relative dissociation constant Kd (μM) for ΔEed binding measured by ITC. (D) Ribbons representation of ΔEed-Jarid2-K116me3 and ΔEed-H3K27me3 complexes. Eed is in gray; Jarid2 peptide is in yellow while H3 peptide is in purple, both in stick representation. Eed aromatic amino acids are in stick and cyan color. Top: top views. Bottom: zoom-in of side views. (E) HKMT assay as in (A) in presence of peptides Jarid2-K116me3 WT or F117A. (F) Left: representation of the chimeric proteins used in the HKMT assay. The red cross indicates the point mutations introduced in the protein to perform native chemical ligation. Red circle indicates K116me3. Right: quantification of PRC2-HKMT activity in the presence of the three Jarid2 fragments (mean ± SD, n = 3). […]
To evaluate a potential competition between H3K27me3 and Jarid2-K116me3, we reconstituted chromatin in presence of increasing ratios of octamers fully methylated on K27 and monitored PRC2 activity in presence of Jarid2 fragments (Figure 5G). […]

B1: fully methylated Jarid2 fragment: peptide containing aa 109–123 (K116me3) coupled through native chemical ligation with the aa 124–450 fragment (protein, UniProt Q92833 109-450, looked up, fragment)
chain: PRLQAQRKFAQSQPNSPSTTPVKIVEPLLPPPATQISDLSKRKPKTEDFLTFLCLRGSPALPNSMVYFGSSQDEEEVEEEDDETEDVKTATNNASSSCQSTPRKGKTHKHVHNGHVFNGSSRSTREKEPVQKHKSKEATPAKEKHSDHRADSRREQASANHPAAAPSTGSSAKGLAATHHHPPLHRSAQDLRKQVSKVNGVTRMSSLGAGVTSAKKMREVRPSPSKTVKYTATVTKGAVTYTKAKRELVKDTKPNHHKPSSAVNHTISGKTESSNAKTRKQVLSLGGASKSTGPAVNGLKVSGRLNPKSCTKEVGGRQLREGLQLREGLRNSKRRLEEAHQA
modifications: K116 trimethyl
notes: peptide containing aa 109–123 (K116me3) coupled through native chemical ligation with the aa 124–450 fragment
With B1 the “stimulation of PRC2 enzymatic activity relative to K116A or K116R fragments, result in words” value (PRC2) was “this stimulation was lost” and the “effect of H3K27me3 titration on Jarid2-mediated stimulation of PRC2, result in words” value (PRC2-Ezh2) was “no effect on the stimulation of PRC2 mediated by Jarid2”.
